Assay results published in publication PMC8956514.

Target: DNMT5 (Cryptococcus neoformans, UniProt J9VI03 58-2377)
Assay: fluorescence polarization

Chain of DNMT5 (J9VI03 58-2377): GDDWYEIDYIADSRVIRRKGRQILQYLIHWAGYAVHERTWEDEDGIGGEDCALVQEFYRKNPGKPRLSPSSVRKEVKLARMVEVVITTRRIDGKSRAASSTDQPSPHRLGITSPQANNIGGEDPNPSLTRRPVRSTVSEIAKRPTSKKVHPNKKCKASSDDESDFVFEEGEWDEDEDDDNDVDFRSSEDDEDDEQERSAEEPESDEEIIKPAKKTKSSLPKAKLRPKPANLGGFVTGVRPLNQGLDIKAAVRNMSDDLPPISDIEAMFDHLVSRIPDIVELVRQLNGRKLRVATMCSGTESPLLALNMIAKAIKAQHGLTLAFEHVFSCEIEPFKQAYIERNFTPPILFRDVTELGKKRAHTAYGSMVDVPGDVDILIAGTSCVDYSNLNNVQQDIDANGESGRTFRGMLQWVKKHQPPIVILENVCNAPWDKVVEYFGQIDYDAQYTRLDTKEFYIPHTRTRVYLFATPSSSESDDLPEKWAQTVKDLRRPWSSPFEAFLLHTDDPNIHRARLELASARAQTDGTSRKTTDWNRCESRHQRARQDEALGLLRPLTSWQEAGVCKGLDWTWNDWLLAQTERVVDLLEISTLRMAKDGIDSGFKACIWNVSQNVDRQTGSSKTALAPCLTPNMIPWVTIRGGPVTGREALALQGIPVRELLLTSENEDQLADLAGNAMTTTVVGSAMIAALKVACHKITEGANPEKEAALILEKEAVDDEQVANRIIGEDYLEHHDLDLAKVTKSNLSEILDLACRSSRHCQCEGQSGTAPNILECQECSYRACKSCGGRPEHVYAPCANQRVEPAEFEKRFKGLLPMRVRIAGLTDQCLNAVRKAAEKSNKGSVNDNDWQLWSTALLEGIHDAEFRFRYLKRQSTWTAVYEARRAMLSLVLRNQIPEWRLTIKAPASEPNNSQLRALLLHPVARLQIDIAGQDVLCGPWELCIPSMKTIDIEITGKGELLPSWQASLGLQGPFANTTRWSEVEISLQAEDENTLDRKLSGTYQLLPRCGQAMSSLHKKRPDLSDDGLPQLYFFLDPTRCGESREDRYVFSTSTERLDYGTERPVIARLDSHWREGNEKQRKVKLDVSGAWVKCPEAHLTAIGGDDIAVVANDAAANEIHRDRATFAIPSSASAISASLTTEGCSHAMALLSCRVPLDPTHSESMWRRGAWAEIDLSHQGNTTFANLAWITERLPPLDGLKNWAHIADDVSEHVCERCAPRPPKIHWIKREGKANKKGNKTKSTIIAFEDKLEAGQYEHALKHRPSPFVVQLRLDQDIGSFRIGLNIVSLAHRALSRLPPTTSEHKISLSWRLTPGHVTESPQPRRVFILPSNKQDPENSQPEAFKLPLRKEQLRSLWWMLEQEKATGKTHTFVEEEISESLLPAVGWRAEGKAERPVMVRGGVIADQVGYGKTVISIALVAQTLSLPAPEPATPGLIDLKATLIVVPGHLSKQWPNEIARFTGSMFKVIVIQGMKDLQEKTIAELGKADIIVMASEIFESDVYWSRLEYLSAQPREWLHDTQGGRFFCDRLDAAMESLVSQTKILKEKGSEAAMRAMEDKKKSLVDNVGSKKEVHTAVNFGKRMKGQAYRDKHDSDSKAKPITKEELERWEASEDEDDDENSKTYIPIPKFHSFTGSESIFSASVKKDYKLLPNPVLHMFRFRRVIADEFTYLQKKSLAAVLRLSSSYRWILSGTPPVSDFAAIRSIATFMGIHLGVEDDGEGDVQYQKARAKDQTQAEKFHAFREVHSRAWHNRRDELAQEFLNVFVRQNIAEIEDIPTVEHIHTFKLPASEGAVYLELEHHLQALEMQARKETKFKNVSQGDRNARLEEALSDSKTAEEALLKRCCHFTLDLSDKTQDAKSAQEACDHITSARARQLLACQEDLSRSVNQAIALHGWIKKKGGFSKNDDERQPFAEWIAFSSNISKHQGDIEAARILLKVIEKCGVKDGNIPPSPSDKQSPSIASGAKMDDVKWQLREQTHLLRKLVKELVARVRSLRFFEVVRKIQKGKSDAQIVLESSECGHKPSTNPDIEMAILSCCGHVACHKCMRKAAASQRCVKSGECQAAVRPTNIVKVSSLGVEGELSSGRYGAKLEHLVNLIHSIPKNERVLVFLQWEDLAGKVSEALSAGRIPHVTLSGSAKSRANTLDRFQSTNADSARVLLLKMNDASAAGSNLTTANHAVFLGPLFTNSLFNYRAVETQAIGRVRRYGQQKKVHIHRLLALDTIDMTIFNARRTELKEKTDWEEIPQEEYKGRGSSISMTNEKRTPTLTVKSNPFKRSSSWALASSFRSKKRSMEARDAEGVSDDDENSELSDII

B1: FAM-hmDNA (dsDNA)
DNA 1: CCATGCGCTGACACTAGAATTGCCTAAGACCATACA
DNA 2: TGTATGGTCTTAGGCAATTCTAGTGTCAGCGCATGG
modifications: 5-methylcytosine at position 30 of strand 2 (hemimethylated CpG)
binding signal: ~4 fold preference over umDNA
